Data from article PMC3315804 (Molecular Biology of the Cell, 2012).

T1: Y14D-Cav-1-YFP (phosphomimicking mutant) (human, UniProt Q03135 1-178, Y14D)
T1 sequence: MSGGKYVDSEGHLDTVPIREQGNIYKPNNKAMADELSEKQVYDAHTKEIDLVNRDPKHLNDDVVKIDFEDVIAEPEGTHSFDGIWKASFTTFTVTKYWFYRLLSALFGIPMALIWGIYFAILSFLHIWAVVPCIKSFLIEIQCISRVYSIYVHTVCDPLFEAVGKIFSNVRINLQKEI


Columns and labels:
[1] = molecular target: Y14D-Cav-1-YFP (phosphomimicking mutant) (human) (UniProt Q03135); test: co-IP
[2] = molecular target: T1, Y14D-Cav-1-YFP (phosphomimicking mutant); test: co-IP

| fold binding against WT-eNOS with WT-Cav-1 [1] [fold] | fold binding against WT-eNOS with WT-Cav-1 [2] [fold] | Molecule |
| --- | --- | --- |
| 4.2 |  | eNOS-S1177D-CFP (phosphomimicking mutant) (from UniProt P29474-1 1-1203) (enzyme) |
|  | 4.2 | WT-eNOS-CFP, expressed in HEK cells (enzyme) MGNLKSVAQEPGPPCGLGLGLGLGLCGKQGPATPAPEPSRAPASLLPPAPEHSPPSSPLTQPPEGPKFPRVKNWEVGSITYDTLSAQAQQDGPCTPRRCLGSLVFPRKLQGRPSPGPPAPEQLLSQARDFINQYYSSIKRSGSQAHEQRLQEVEAEVAATGTYQLRESELVFGAKQAWRNAPRCVGRIQWGKLQVFDARDCRSAQEMFTYICNHIKYATNRGNLRSAITVFPQRCPGRGDFRIWNSQLVRYAGYRQQDGSVRGDPANVEITELCIQHGWTPGNGRFDVLPLLLQAPDDPPELFLLPPELVLEVPLEHPTLEWFAALGLRWYALPAVSNMLLEIGGLEFPAAPFSGWYMSTEIGTRNLCDPHRYNILEDVAVCMDLDTRTTSSLWKDKAAVEINVAVLHSYQLAKVTIVDHHAATASFMKHLENEQKARGGCPADWAWIVPPISGSLTPVFHQEMVNYFLSPAFRYQPDPWKGSAAKGTGITRKKTFKEVANAVKISASLMGTVMAKRVKATILYGSETGRAQSYAQQLGRLFRKAFDPRVLCMDEYDVVSLEHETLVLVVTSTFGNGDPPENGESFAAALMEMSGPYNSSPRPEQHKSYKIRFNSISCSDPLVSSWRRKRKESSNTDSAGALGTLRFCVFGLGSRAYPHFCAFARAVDTRLEELGGERLLQLGQGDELCGQEEAFRGWAQAAFQAACETFCVGEDAKAAARDIFSPKRSWKRQRYRLSAQAEGLQLLPGLIHVHRRKMFQATIRSVENLQSSKSTRATILVRLDTGGQEGLQYQPGDHIGVCPPNRPGLVEALLSRVEDPPAPTEPVAVEQLEKGSPGGPPPGWVRDPRLPPCTLRQALTFFLDITSPPSPQLLRLLSTLAEEPREQQELEALSQDPRRYEEWKWFRCPTLLEVLEQFPSVALPAPLLLTQLPLLQPRYYSVSSAPSTHPGEIHLTVAVLAYRTQDGLGPLHYGVCSTWLSQLKPGDPVPCFIRGAPSFRLPPDPSLPCILVGPGTGIAPFRGFWQERLHDIESKGLQPTPMTLVFGCRCSQLDHLYRDEVQNAQQRGVFGRVLTAFSREPDNPKTYVQDILRTELAAEVHRVLCLERGHMFVCGDVTMATNVLQTVQRILATEGDMELDEAGDVIGVLRDQQRYHEDIFGLTLRTQEVTSRIRTQSFSLQERQLRGAVPWAFDPPGSDTNSP |
